This note sets out measurements from publication PMC7870818, “SPRTN protease-cleaved MRE11 decreases DNA repair and radiosensitises cancer cells”.

Series [1] addresses T1, FL-MRE11 (human, UniProt P49959 1-708).
T1 sequence: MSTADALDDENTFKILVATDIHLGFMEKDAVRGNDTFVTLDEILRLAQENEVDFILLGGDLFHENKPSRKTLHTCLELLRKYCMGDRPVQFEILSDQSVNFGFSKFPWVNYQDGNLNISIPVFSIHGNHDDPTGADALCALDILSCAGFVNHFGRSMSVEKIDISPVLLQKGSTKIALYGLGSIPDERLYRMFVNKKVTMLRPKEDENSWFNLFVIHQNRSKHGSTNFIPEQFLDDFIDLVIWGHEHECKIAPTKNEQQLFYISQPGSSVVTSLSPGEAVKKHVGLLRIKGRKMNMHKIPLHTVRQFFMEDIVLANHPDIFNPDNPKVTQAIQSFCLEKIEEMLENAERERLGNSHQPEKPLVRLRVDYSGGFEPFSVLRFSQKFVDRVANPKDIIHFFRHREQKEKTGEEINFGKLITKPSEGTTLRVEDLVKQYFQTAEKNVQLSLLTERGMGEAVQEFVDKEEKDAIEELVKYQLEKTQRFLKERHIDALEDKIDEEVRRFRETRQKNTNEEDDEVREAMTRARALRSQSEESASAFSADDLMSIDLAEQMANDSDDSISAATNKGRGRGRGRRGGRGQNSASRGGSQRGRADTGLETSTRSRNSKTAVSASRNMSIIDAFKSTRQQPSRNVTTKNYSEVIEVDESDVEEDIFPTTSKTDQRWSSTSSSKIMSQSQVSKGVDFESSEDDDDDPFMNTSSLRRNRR
Description: fluorescence polarization; no metal listed in buffer; apparent Kd, n=1; 10 mM Tris pH 8.0, 25 mM NaCl, 0.1% Tween20, 2 mM DTT; 10 nM DNA; temperature not stated, measured immediately. Conditions: protein: recombinant; tags: His tag (pNIC28-Bsa4), TEV protease treated; chain copies: 2; label: 5' FITC on TP423; 34 bp duplex (S1[1-34] with S2[1-34]); 3' overhangs 16 nt (S1) and 15 nt (S2). In general terms: Polarisation of emitted light reports the rotation of a fluorescent probe.

Series [2] has as its target T2, TR-MRE11 (human, UniProt P49959 1-568, del569-708).
T2 sequence: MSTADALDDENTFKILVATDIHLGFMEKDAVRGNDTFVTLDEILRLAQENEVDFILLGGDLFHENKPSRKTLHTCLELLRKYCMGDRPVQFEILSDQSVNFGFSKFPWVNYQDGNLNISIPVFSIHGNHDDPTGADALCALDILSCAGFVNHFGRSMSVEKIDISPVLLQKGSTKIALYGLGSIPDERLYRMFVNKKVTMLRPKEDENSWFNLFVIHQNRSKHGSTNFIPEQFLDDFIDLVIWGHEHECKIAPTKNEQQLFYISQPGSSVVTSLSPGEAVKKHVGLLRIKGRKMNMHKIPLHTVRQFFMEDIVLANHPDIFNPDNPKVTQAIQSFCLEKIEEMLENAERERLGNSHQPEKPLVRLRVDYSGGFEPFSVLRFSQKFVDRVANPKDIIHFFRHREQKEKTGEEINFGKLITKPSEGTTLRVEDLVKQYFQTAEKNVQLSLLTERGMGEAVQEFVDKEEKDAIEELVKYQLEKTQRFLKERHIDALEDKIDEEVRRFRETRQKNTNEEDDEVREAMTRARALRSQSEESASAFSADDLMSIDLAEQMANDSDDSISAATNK
Description: fluorescence polarization; no metal listed in buffer; apparent Kd, n=1; 7-fold lower affinity than FL; 10 mM Tris pH 8.0, 25 mM NaCl, 0.1% Tween20, 2 mM DTT; 10 nM DNA; temperature not stated, measured immediately. Conditions: protein: recombinant; tags: His-SUMO tag removed by SUMO protease; chain copies: 2; label: 5' FITC on TP423; 34 bp duplex (S1[1-34] with S2[1-34]); 3' overhangs 16 nt (S1) and 15 nt (S2).

B1: TP423/TP424 3'-overhang duplex (dsDNA)
DNA 1: CTGCAGGGTTTTTGTTCCAGTCTGTAGCACTGTGTAAGACAGGCCAGATC
DNA 2: CACAGTGCTACAGACTGGAACAAAAACCCTGCAGTACTCTACTCATCTC
In the case of B1, the Kd in series [1] was determined as 34.6 nM; in series [2], 242 nM.
